From the supplement of paper PMC9170038

System: MS2 coat protein
Assay: apparent KD of MS2 coat protein; higher = weaker reporter binding
Details: Eterna round: R107
Description: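 RNA-MaP round R107: designed RNA switches with theophylline, tryptophan, arginine or FMN aptamers are transcribed on-chip within common flanks. They are titrated with SNAP-549-labelled MS2 coat protein in RNA-MaP buffer (100 mM Tris pH 7.5, 80 mM KCl, 4 mM MgCl2), without ligand or with the indicated ligand. Median apparent KD per design.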

[1] = input ligand: theophylline 20 uM
[2] = input ligand: tryptophan 2.4 mM
[3] = input ligand: theophylline 2 mM

Sequence	apparent KD of MS2 coat protein (input ligand: arginine 13.2 mM) [µM]	apparent KD of MS2 coat protein [1] [µM]	apparent KD of MS2 coat protein [2] [µM]	apparent KD of MS2 coat protein (input ligand: none) [µM]	apparent KD of MS2 coat protein [3] [µM]
AUUAAUAGUUGUGAUACCAGACGAACAUGAGGAUCACCCAUGUAACUUAAGAGUGUUGAUGUCCCUUGGCAGCACUGUUUAGUUA [JR_SSTheophyB_Sub015]	0.0595	0.105	0.0915		
UUAUUUAUAGGGUAUAUCAGAUUAACUGAAGGAGCGUGGUAAUUCACAGGUAGGUCGCAGAUGGAACAUGAGGAUCACCCAUGUU [JR_ExcArginiA_Sub015]	0.0182	0.0285	0.0208	0.0192	0.0222
AACUAAUCACAUGAGGAUCACCCAUGUGAUACCAGCUAAUCCCAAAGCCCUUGGCAGCACCUUUGGGUCCCGGUGUGUUUGAACA [Onceesa]	0.00942	0.0123	0.00933		
CGUGGUGGGACGGAUACCAGCCACCGCGGCAACGCAACAUGAGGAUCACCCAUGUUGGGUGGCCCUUGGCAGCUGUGCUGCGACG [#1 Same State - Theophylline B Attempt #28 (HarryS)]	0.0509	0.191	0.0952	0.182	0.0342
GAGUUGUGCUCAGGCCCGACUCGCUGAGAAGGAGCGCACUAAGGUGCAGGUAGGUCGCUCAGGAAUACAUGAGGAUCACCCAUGU [Erlaatti]	0.0217	0.0299	0.0252	0.0229	0.0285
GCCAUCGGCGGAAGCCGAUGGGAUACAGAAGGAGCGUAGGAAACUACAGGUAGGUCGCUGGACAUGAGGAUCACCCAUGUGAUAG [SSAA #11]	0.0196	0.0319	0.0227	0.024	0.0316
AGUAUACAUUCUGAUACCAGAGACAUGAGGAUCACCCAUGUCCGAUCGUCCUGCCUCAGACUCCCUUGGCAGCAGGAUAUGUGCU [Exclusion Theophylline B GF5]	0.0162	0.0218	0.0166		
AGACAUGAGGAUCACCCAUGUAGUACGGAUACCAGAUCCAGAUGCGUCCCUUGGCAGCUGUAGUACAGCGUUACGUCGCUCAUAG [Exclusion - Theophylline A (Freestyle 26)]	0.0203	0.0481	0.0284		
GCAUCCUAGUCGGCCGCCACUGCGAAUAGGUCCUGAGUGAUCUAACAUGAGGAUCACCCAUGUAGCAGGACCGGGACUAGGAUGC [(Trp1)-(TM)''-(TM)'-(Ms2)-(Trp2)_Design5]	0.0128	0.0223	0.0173	0.0165	0.023
AGACAUGAGGAUCACCCAUGUAGUACGGAUACCAGAUCCAGAUGUAUCCCUUGGCAGCUGUGGUACAGCGUUACAUCGCUCCUAG [Exclusion - Theophylline A (Freestyle 20)]	0.0159	0.0244	0.0158		
GCCUAGCAGCGAAGGAGCGAGGUAACUUAAUAAAUAAAUACAAGAGGAUCACCCUUGUUUCCUCAGGUAGGUCGCGCUGCUAGGC [SSAB Alternative Aptamer #2 NP+V+V2]	0.0182	0.0256	0.0235	0.0226	0.0209
UCUUACUAUAGUGAUACCAGACGUACAUGAGGAUCACCCAUGUUACAUUCUUGGUUAAAAGUCCCUUGGCAGCACGAUUUGUUCG [JR_Nu_ExcTheophyB_Sub026]	0.00988	0.0108	0.00976		
ACAUGAGGAUCACCCAUGUAUCAACGGGAAGGAGCGCCAAACAAGGCAGGUAGGUCGCCCACAUGAGGAUCACCCGUGUGUUGGG [Exclusion Arginine A GF 30]	0.0231	0.0585	0.0384	0.0378	0.0439
UACCGAUACGGAAGGAGCGUAGAAGUAGUACAUGAGGAUCACCCAUGUAUGGGUAAUUUCGUACAGGUAGGUCGCCGUAUCGGUA [SSAB NP+V+V2 #23]	0.0233	0.0383	0.0355	0.0318	0.04
GGUUGGUGUAGAGAUAUAUUGAUUACUGAAGGAGCGGGAAGAAACCCAGGUAGGUCGCAGAGAUCCACAUGAGGAUCACCCAUGU [!0.L]	0.0267	0.0495	0.0275	0.0386	0.0593
UCGUUUUAGUCGGCCGCCACUGGUCUCAUGUUCAACAUGAGGAUCACCCAUGUAUCUUAUUUUAACAGGACCGGGACGUAAUAGA [#16 Exclusion Tryptophan B]	0.0908	0.0882			0.14
GGCACAUAGUCGGCCGCCACUACGUGGAGAUCGGAGUACAUGAGGAUCACCCAUGUAUGGAAGGGUAGGACCGGGACUAUGUGCC [Horalka]	0.0383	0.0385	0.0187	0.0671	0.123
GAGUAGUAGACGGCCGCCACUAAACAUGAGGAUCACCCAUGUAGUGAUCCGUUACCUAGCGUAGAUAGGACCGGGUCAGAUAGUA [Exclusion Tryptophan B GF 14]	0.0216	0.0317			0.0259
UGAUGGUUCGGAAGGAGCGUGUAAGAACAAGAACAUGAGGAUCACCCAUGUAUUAAUUUAACACAGGUAGGUCGCCGAGUUAUUG [11.I]	0.0126	0.0221	0.017	0.0159	0.0289
AGCAAGCAACAUGAGGAUCACCCAUGUGAAGGAGCGCCGAAUAAGGCAGGUAGGUCGCACAUGAAUAAAUCAUGUAAAAGCUUGC [MAT - Exclusion Arginine A - Mod of Eli - D23]	0.104	0.164	0.138	0.185	0.0681
GCUGCCAUACGAAGGAGCGCUGGUGUAAUGAGGCGAACAUGAGGAUCACCCAUGUGGCAUAAGCAGGUAGGUCGCGUAUGGCAGC [EAB #16]	0.0166	0.0202	0.0159	0.0172	0.0208
CACAUGAGGAUCACCCAUGUCUGAACUGAAGGAGCGCUAAAUAAGGCAGGUAGGUCGCGGAAUCCUGUGUGCAUAUGCACACGGG [9.X]	0.0207	0.0305	0.0198	0.0226	0.0289
ACACCGAAAGGUGCAUUUUCCUUUUCAGAUACCAGACUUUACGUUGUCCCUUGGCAGCUGUAUCACAUGAGGAUCACCCAUGUUG [JR_SSTheophyA_Sub012]	0.016	0.0214	0.0159		
AAACGUUGCUGCGAUACCAGACAUGAGGAUCACCCAUGUACCAAGGUAACCGAAAGGCAUGUCCCUUGGCAGCGCAGCAACGAAA [MAT - Exclusion Theophlline B - Mod of Eli - D17]	0.0148	0.0189	0.0135	0.0111	0.262
AUUAUCAUGGUCAUAUAUAUAUCGUCAGAUACCAGACUAGAUAUAGUCCCUUGGCAGCUGUUACAUGAGGAUCACCCAUGUUAUA [JR_ExcTheophyA_Sub015]	0.0435	0.0801	0.0887		
AAGCUGACAAGAAGGUGUUCCUAAGCUGAUACCAGCCUGGAAACAGGCCCUUGGCAGCAGCACAUGAGGAUCACCCAUGUAAUAA [(T)'-(M)'-(T1)-(T2)-(M1)-(M2)_Design2(Mismatches)]	0.101	0.172	0.115		
AGAUCUUUCGAAAGAAGGAUCUUGUCUGAUACCAGAGACGAAAGUCUCCCUUGGCAGCAGUGCCAACAUGAGGAUCACCCAUGUA [Theophylline A 12]	0.022	0.0247	0.0213		
UGUAUGUGAUCUGAUACCAGAGUUGAUAAUCUGAGGAUCACCCUGGUAAGGCGAAAGCCGCUCCCUUGGCAGCAGAUCGCAUACU	0.526	0.969	0.884	0.946	0.244
GGAUAGGACACGGCCGCCACUAGCUAGGAUACUAGCAACAUUUCCUCACAUGAGGAUCACCCAUGUAGGACCGGGUGUCCUAUCG	0.0799	0.145			0.112
